Laboratory results published in US20240115745A1 (3B PHARMACEUTICALS, published 2024).
*1 amine or outer side, *2 acyl side, *3 side chain or, on linkers, in order; H or OH if unused. Bridges are numbered along the chain shown (N, C = ends). Primed or numbered codes have the meaning given here. [ ]: non-standard residue; d: D form. The star is where a group is joined. mli = maleimide cyclization element: 3,4-maleimide inserted symmetrically, forming a vinyl thioether with each Cys sulfur; Ttds = 1,13-diamino-4,7,10-trioxatridecan-succinamic acid, NCCCOCCOCCOCCCNC(=O)CCC(=O)*; mli(DOTA-Ttd) = 3,4-N-(DOTA-Ttd)-maleimide bridging two Cys S atoms as vinyl thioethers; N4Ac = 6-carboxy-1,4,8,11-tetraazaundecane, NCCNCC(CNCCN)C(=O)*; Buur = n-butylaminocarbonyl blocking group, CCCCNC(=O)*; DOTA = O=C(O)CN1CCN(CC(=O)O)CCN(CC(=O)*)CCN(CC(=O)O)CC1; NODAGA = O=C(O)CN1CCN(CC(=O)O)CCN(C(CCC(=O)*)C(=O)O)CC1; Maleimide(3,4-diyl) = O=C1NC(=O)C([*:2])=C1[*:1]; Buur″ = n-butylaminocarbonyl, CCCCNC(=O)*; O2Oc = 3,6-dioxaoctanoic acid; β3hK = NCCCC[C@H](N)CC(=O)O; 4Amb = NCc1ccc(C(=O)O)cc1; hCys = N[C@@H](CCS)C(=O)O; Nle = CCCC[C@H](N)C(=O)O; Hexanoyl = CCCCCC(=O)*

Key:
[1] = target: Recombinant human FAP (R&D systems, #3715-SE) (human, UniProt Q12884 26-760); test: cell-based or functional assay
[2] = target: T1, fibroblast activation protein (FAP) on FAP-expressing human WI-38 fibroblasts (human, UniProt Q12884 1-760); test: competitive FACS on WI-38 cells vs 3 nM Cy5-labeled probe; A = pIC50 >7.0
T1 construct: Endogenous FAP on WI-38 cells (ECACC) in the FACS assay; also called human FAP
Protocol: FAP-expressing human WI-38 fibroblasts (ECACC) were cultured in EMEM including 15% fetal bovine serum, 2 mM L-Glutamine and 1% Non-essential amino acids. Cells were detached with Accutase (Biolegend, #BLD-423201) and washed in FACS buffer (PBS including 1% FBS). Cells were diluted in FACS buffer to a final concentration of 100.000 cells per ml and 200 μl of the cell suspension are transferred to a u-shaped non-binding 96-well plate (Greiner). […] Cell were washed twice with FACS buffer and resuspended in 200 μl FACS buffer. Cells were analyzed in an Attune NxT flow cytometer. Median fluorescence intensities (Cy5 channel) was calculated by Attune NxT software and plotted against peptide concentrations. Four parameter logistic (4PL) curve fitting and pIC50 calculations were performed using ActivityBase software.

Binder	pIC50 Category (Activity), FRET-based FAP protease activity assay [1] [pIC50]	pIC50 Category (FACS) [2] [pIC50]
{DOTA-Ttds}-[Nle]CPPTEFCD[4Amb]R-NH2 (disulfide 2-8, By the running order it belongs to 1007) [compound DOTA-Ttds-Nle-[Cys-Pro-Pro-Thr-Glu-Phe-Cys]-Asp-Pamb-Arg-NH2 (1007)]	> 7	> 7
{DOTA-Ttds}-[Nle]CPPTQFCD[4Amb]R-NH2 (linker 2-8 via Maleimide(3,4-diyl)) [compound DOTA-Ttds-Nle-[Cys(mli)-Pro-Pro-Thr-Gln-Phe-Cys]-Asp-Pamb-Arg-NH2 (2006)]	> 7	> 7
MCPPTEFCDHFRD (HELM PEPTIDE1{M.C.P.P.T.E.F.C.D.H.F.R.D.[am]}$PEPTIDE1,PEPTIDE1,2:R3-8:R3$$$V2.0; SMILES CSCC[C@H](N)C(=O)N[C@H]1CSSC[C@@H](C(=O)N[C@@H](CC(=O)O)C(=O)N[C@@H](Cc2c[nH]cn2)C(=O)N[C@@H](Cc2ccccc2)C(=O)N[C@@H](CCCNC(=N)N)C(=O)N[C@@H](CC(=O)O)C(N)=O)NC(=O)[C@H](Cc2ccccc2)NC(=O)[C@H](CCC(=O)O)NC(=O)[C@H]([C@@H](C)O)NC(=O)[C@@H]2CCCN2C(=O)[C@@H]2CCCN2C1=O) [compound H-Met-[Cys-Pro-Pro-Thr-Glu-Phe-Cys]-Asp-His-Phe-Arg-Asp-NH2 (1001)]	> 7	> 7
Hexanoyl-CPPTQFCDK(DOTA)-NH2 (linker 1-7 via mli) [compound Hex-[Cys(mli)-Pro-Pro-Thr-Gln-Phe-Cys]-Asp-Lys(DOTA)-NH2 (2012)]	> 7	> 7
Hexanoyl-CPPTEFCDHFRD-NH2 (disulfide 1-7) [compound Hex-[Cys-Pro-Pro-Thr-Glu-Phe-Cys]-Asp-His-Phe-Arg-Asp-NH2 (1002)]	> 7	> 7
{DOTA}-[Nle]CPPTQFCD-NH2 (linker 2-8 via mli) [compound DOTA-Nle-[Cys(mli)-Pro-Pro-Thr-Gln-Phe-Cys]-Asp-NH2 (2003)]	> 7	> 7
Hexanoyl-[hCys]PPTQF[hCys]D-NH2 (disulfide 1-7) [compound Hex-[Hcy-Pro-Pro-Thr-Gln-Phe-Hcy]-Asp-NH2 (2002)]	> 7	> 7
Hexanoyl-CPPTQFCDK(DOTA)-NH2 (disulfide 1-7; SMILES CCCCCC(=O)N[C@H]1CSSC[C@@H](C(=O)N[C@@H](CC(=O)O)C(=O)N[C@@H](CCCCNC(=O)CN2CCN(CC(=O)O)CCN(CC(=O)O)CCN(CC(=O)O)CC2)C(N)=O)NC(=O)[C@H](Cc2ccccc2)NC(=O)[C@H](CCC(N)=O)NC(=O)[C@H]([C@@H](C)O)NC(=O)[C@@H]2CCCN2C(=O)[C@@H]2CCCN2C1=O) [compound Hex-[Cys-Pro-Pro-Thr-Gln-Phe-Cys]-Asp-Lys(DOTA)-NH2 (1016)]	> 7	> 7
Buur-CPPTEFCDK(DOTA)-NH2 (disulfide 1-7; SMILES CCCCNC(=O)N[C@H]1CSSC[C@@H](C(=O)N[C@@H](CC(=O)O)C(=O)N[C@@H](CCCCNC(=O)CN2CCN(CC(=O)O)CCN(CC(=O)O)CCN(CC(=O)O)CC2)C(N)=O)NC(=O)[C@H](Cc2ccccc2)NC(=O)[C@H](CCC(=O)O)NC(=O)[C@H]([C@@H](C)O)NC(=O)[C@@H]2CCCN2C(=O)[C@@H]2CCCN2C1=O) [compound Buur-[Cys-Pro-Pro-Thr-Glu-Phe-Cys]-Asp-Lys(DOTA)-NH2 (1015)]	> 7	> 7
Hexanoyl-CPPTEFCDK(NODAGA)-NH2 (disulfide 1-7; SMILES CCCCCC(=O)N[C@H]1CSSC[C@@H](C(=O)N[C@@H](CC(=O)O)C(=O)N[C@@H](CCCCNC(=O)CCC(C(=O)O)N2CCN(CC(=O)O)CCN(CC(=O)O)CC2)C(N)=O)NC(=O)[C@H](Cc2ccccc2)NC(=O)[C@H](CCC(=O)O)NC(=O)[C@H]([C@@H](C)O)NC(=O)[C@@H]2CCCN2C(=O)[C@@H]2CCCN2C1=O) [compound Hex-[Cys-Pro-Pro-Thr-Glu-Phe-Cys]-Asp-Lys(NODAGA)-NH2 (1020)]	> 7	> 7
Hexanoyl-CPPTEFCDK(DOTA)-NH2 (disulfide 1-7; SMILES CCCCCC(=O)N[C@H]1CSSC[C@@H](C(=O)N[C@@H](CC(=O)O)C(=O)N[C@@H](CCCCNC(=O)CN2CCN(CC(=O)O)CCN(CC(=O)O)CCN(CC(=O)O)CC2)C(N)=O)NC(=O)[C@H](Cc2ccccc2)NC(=O)[C@H](CCC(=O)O)NC(=O)[C@H]([C@@H](C)O)NC(=O)[C@@H]2CCCN2C(=O)[C@@H]2CCCN2C1=O) [compound Hex-[Cys-Pro-Pro-Thr-Glu-Phe-Cys]-Asp-Lys(DOTA)-NH2 (1013)]	> 7	> 7
Hexanoyl-CPPTEFCDK(N4Ac)-NH2 (disulfide 1-7; SMILES CCCCCC(=O)N[C@H]1CSSC[C@@H](C(=O)N[C@@H](CC(=O)O)C(=O)N[C@@H](CCCCNC(=O)C(CNCCN)CNCCN)C(N)=O)NC(=O)[C@H](Cc2ccccc2)NC(=O)[C@H](CCC(=O)O)NC(=O)[C@H]([C@@H](C)O)NC(=O)[C@@H]2CCCN2C(=O)[C@@H]2CCCN2C1=O) [compound Hex-[Cys-Pro-Pro-Thr-Glu-Phe-Cys]-Asp-Lys(N4Ac)-NH2 (1021)]	> 7	> 7
{DOTA-O2Oc}-[Nle]CPPTQFCD-NH2 (linker 2-8 via mli) [compound DOTA-O2Oc-Nle-[Cys(mli)-Pro-Pro-Thr-Gln-Phe-Cys]-Asp-NH2 (2004)]	> 7	> 7
{DOTA-Ttds}-[Nle]CPPTQFCD-NH2 (linker 2-8 via mli) [compound DOTA-Ttds-Nle-[Cys(mli)-Pro-Pro-Thr-Gln-Phe-Cys]-Asp-NH2 (2005)]	> 7	> 7
Hexanoyl-CPPTQFCD-NH2 (linker 1-7 via mli) [compound Hex-[Cys(mli)-Pro-Pro-Thr-Gln-Phe-Cys]-Asp-NH2 (2001)]	> 7	> 7
CPPTEFCD (HELM PEPTIDE1{[O=C(O)CN1CCN(CC(=O)O)CCN(CC(=O)[*:2])CCN(CC(=O)O)CC1].[Nle].C.P.P.T.E.F.C.D.[am]}$PEPTIDE1,PEPTIDE1,3:R3-9:R3$$$V2.0; SMILES CCCC[C@H](NC(=O)CN1CCN(CC(=O)O)CCN(CC(=O)O)CCN(CC(=O)O)CC1)C(=O)N[C@H]1CSSC[C@@H](C(=O)N[C@@H](CC(=O)O)C(N)=O)NC(=O)[C@H](Cc2ccccc2)NC(=O)[C@H](CCC(=O)O)NC(=O)[C@H]([C@@H](C)O)NC(=O)[C@@H]2CCCN2C(=O)[C@@H]2CCCN2C1=O) [compound DOTA-Nle-[Cys-Pro-Pro-Thr-Glu-Phe-Cys]-Asp-NH2 (1004)]	> 7	
Hexanoyl-CPPTEFCD-NH2 (linker 1-7 via mli(DOTA-Ttd)) [compound Hex-[Cys(mli(DOTA-Ttd))-Pro-Pro-Thr-Glu-Phe-Cys]-Asp-NH2 (2020)]	> 7	
{DOTA-Ttds}-[Nle]CPPTEFCD-NH2 (linker 2-8 via mli) [compound DOTA-Ttds-Nle-[Cys(mli)-Pro-Pro-Thr-Glu-Phe-Cys]-Asp-NH2 (2007)]	> 7	
{DOTA-Ttds}-[Nle]CPPTEFCD-NH2 (disulfide 2-8) [compound DOTA-Ttds-Nle-[Cys-Pro-Pro-Thr-Glu-Phe-Cys]-Asp-NH2 (1003)]	> 7	
{Buur″}-CPPTEFC[β3hK](DOTA)-OH (disulfide 1-7; SMILES CCCCNC(=O)N[C@H]1CSSC[C@@H](C(=O)N[C@@H](CCCCNC(=O)CN2CCN(CC(=O)O)CCN(CC(=O)O)CCN(CC(=O)O)CC2)CC(=O)O)NC(=O)[C@H](Cc2ccccc2)NC(=O)[C@H](CCC(=O)O)NC(=O)[C@H]([C@@H](C)O)NC(=O)[C@@H]2CCCN2C(=O)[C@@H]2CCCN2C1=O) [compound Buur-[Cys-Pro-Pro-Thr-Glu-Phe-Cys]-Bhk(DOTA)-OH (1014)]	> 7	> 7
Hexanoyl-CPPTEFC[β3hK](DOTA)-OH (disulfide 1-7; SMILES CCCCCC(=O)N[C@H]1CSSC[C@@H](C(=O)N[C@@H](CCCCNC(=O)CN2CCN(CC(=O)O)CCN(CC(=O)O)CCN(CC(=O)O)CC2)CC(=O)O)NC(=O)[C@H](Cc2ccccc2)NC(=O)[C@H](CCC(=O)O)NC(=O)[C@H]([C@@H](C)O)NC(=O)[C@@H]2CCCN2C(=O)[C@@H]2CCCN2C1=O) [compound Hex-[Cys-Pro-Pro-Thr-Glu-Phe-Cys]-Bhk(DOTA)-OH (1012)]	> 7	> 7
Hexanoyl-CPPTEFC[β3hK](DOTA)-OH (linker 1-7 via Maleimide(3,4-diyl); SMILES CCCCCC(=O)N[C@H]1CSC2=C(SC[C@@H](C(=O)N[C@@H](CCCCNC(=O)CN3CCN(CC(=O)O)CCN(CC(=O)O)CCN(CC(=O)O)CC3)CC(=O)O)NC(=O)[C@H](Cc3ccccc3)NC(=O)[C@H](CCC(=O)O)NC(=O)[C@H]([C@@H](C)O)NC(=O)[C@@H]3CCCN3C(=O)[C@@H]3CCCN3C1=O)C(=O)NC2=O) [compound Hex-[Cys(mli)-Pro-Pro-Thr-Glu-Phe-Cys]-Bhk(DOTA)-OH (2011)]	> 7	> 7
